The target in assay [1] is T1, 4.1G-CTD triple mutation I958D/V959D/I960D (human, UniProt O43491 939-1005, I958D | V959D | I960D).
T1 sequence (looked up): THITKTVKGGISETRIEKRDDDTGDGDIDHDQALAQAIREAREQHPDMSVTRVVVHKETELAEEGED
In words: ITC.

Assay [2] addresses T2, C-terminal domain of protein 4.1G (4.1G-CTD, aa 939–1005) (human, UniProt O43491 939-1005).
T2 sequence (looked up): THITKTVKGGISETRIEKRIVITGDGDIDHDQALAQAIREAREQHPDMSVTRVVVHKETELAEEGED
In words: ITC.

On to SGRKTRSARRRTTQIINITMTKKLDV (domain or fragment, human, UniProt Q14980 1800-1825, looked up) [NuMA 1800–1825 (26-residue motif at the C-terminal region of nuclear mitotic apparatus protein)], for which binding in assay [1] was characterised by a dissociation constant (Kd) of 333 ± 73 µM. SGRKTRSARRRTTQIINITMTKKLAV (domain or fragment, human, UniProt Q14980 1800-1825, looked up) [NuMA 1800–1825 mutant D1824A]: in assay [2], the binding result is “binds”.

The record behind these values is publication PMC8864705 (Chemical Science, 2022).
